Laboratory results taken from article PMC3182237, “Downregulation of the Hsp90 System Causes Defects in Muscle Cells of Caenorhabditis Elegans” (PLoS ONE, 2011).
Values belong to the binder of their own block, whether it stands above or below them.

How the values were obtained:
Settings in all cases: both partners purified
DAF-21 [1] = biological target: T1, DAF-21 (C. elegans, UniProt Q18688 1-702); assay: AUC; sedimentation velocity with fluorescence detection; fluorescein-labelled cofactor 300 nM, DAF-21 or variant 6 µM; with 4 mM AMP-PNP; 20 to 22°C, 42.000 r.p.m.; dc/dt analysis
T1 construct: DAF-21, the Hsp90 homolog of Caenorhabditis elegans; also called Hsp90; wt-DAF-21; source: E. coli BL21-CodonPlus (DE3)-RIL, purified (HisTrap FF, ResourceQ, Superdex SEC); not shown: His tag (from the vector pET28b)

E292K-DAF-21 [2] = biological target: T2, E292K-DAF-21 (C. elegans, UniProt Q18688 1-702, E292K); assay: as above
T2 construct: DAF-21, the Hsp90 homolog of Caenorhabditis elegans, with the point mutation of the allele daf-21(p673); The mutation occurs in the nematode strain JT6130 (daf-21(p673)); The recombinant variant was made from the daf-21 cDNA; also called E292K variant; DAF-21 of daf-21(p673), strain JT6130; source: E. coli BL21-CodonPlus (DE3)-RIL, purified (HisTrap FF, ResourceQ, Superdex SEC); not shown: His …

DAF-21 [3] = biological target: T1, DAF-21; assay: AUC; sedimentation velocity with fluorescence detection; fluorescein-labelled cofactor 300 nM, DAF-21 or variant 6 µM; no nucleotide; 20 to 22°C, 42.000 r.p.m.; dc/dt analysis
E292K-DAF-21 [4] = biological target: T2, E292K-DAF-21; assay: as above

binding result (DAF-21 [1]): binds
binding result (E292K-DAF-21 [2]): binds
B1: Cep23 (ZC395.10), fluorescein-labelled (natural protein, C. elegans, UniProt Q23280 1-175, looked up)
chain: MAKQPTVLWAQRESLVYLTIEVDEAKIEELKGEGNKLHFQGSSKTDKYEATLEFFDEIDPASVKHTGSSTRVVEITVQKKTPAWWPRLLQNKGKVHWLKVDFGKWKDEDEDDEAEDAGAGIGGGMANGFDLNQYMSQMGGAGGADFGGLEDDEEDDDMPDLEDNEEEEGKNGTRA
modifications: 5-carboxyfluorescein (N-succinimidyl ester) at lysine residues
notes: Cep23, the p23 cofactor of Hsp90 in Caenorhabditis elegans (ZC395.10); also called Labelled Cep23; source: E. coli BL21-CodonPlus (DE3)-RIL, purified (HisTrap FF, ResourceQ, Superdex SEC); not shown: His tag (from the vector pET28b)

binding result (DAF-21 [3]): binds
binding result (E292K-DAF-21 [4]): binds
B2: STI-1, fluorescein-labelled (natural protein, C. elegans, UniProt O16259 1-320, looked up)
chain: MTDAAIAEKDLGNAAYKQKDFEKAHVHYDKAIELDPSNITFYNNKAAVYFEEKKFAECVQFCEKAVEVGRETRADYKLIAKAMSRAGNAFQKQNDLSLAVQWFHRSLSEFRDPELVKKVKELEKQLKAAERLAYINPELAQEEKNKGNEYFKKGDYPTAMRHYNEAVKRDPENAILYSNRAACLTKLMEFQRALDDCDTCIRLDSKFIKGYIRKAACLVAMREWSKAQRAYEDALQVDPSNEEAREGVRNCLRSNDEDPEKAKERSLADPEVQEILRDPGMRMILEQMSNDPGAVREHLKNPEIFQKLMKLRDAGVIQMR
modifications: 5-carboxyfluorescein (N-succinimidyl ester) at lysine residues
notes: STI-1, TPR-containing cofactor of Hsp90 in Caenorhabditis elegans; also called labelled STI-1; source: E. coli BL21-CodonPlus (DE3)-RIL, purified (HisTrap FF, ResourceQ, Superdex SEC); not shown: His tag (from the vector pET28b)
